Test results: patent US20250163164A1 (LANOVA MEDICINES DEVELOPMENT, published 2025)
“And” between values parts separate entries of the source, which are not always exact repeats. Equal values may be shown once.

T1: human interleukin 13 receptor subunit alpha 2 (IL-13RA2) (human, UniProt Q14627 27-380)
T1 construct: whole, on cells; also called IL-13Rα2; CD213A2
T1 sequence (looked up): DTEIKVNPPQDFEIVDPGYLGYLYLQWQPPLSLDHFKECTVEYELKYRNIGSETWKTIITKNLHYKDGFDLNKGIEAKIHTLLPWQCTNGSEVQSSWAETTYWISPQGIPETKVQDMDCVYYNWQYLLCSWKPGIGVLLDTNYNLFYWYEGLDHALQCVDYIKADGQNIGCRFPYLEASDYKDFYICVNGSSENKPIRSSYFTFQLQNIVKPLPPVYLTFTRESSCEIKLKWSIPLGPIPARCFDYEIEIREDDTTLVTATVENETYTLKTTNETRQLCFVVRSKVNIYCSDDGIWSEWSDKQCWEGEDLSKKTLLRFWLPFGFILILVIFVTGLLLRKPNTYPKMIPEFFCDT


Biological target: T1, human interleukin 13 receptor subunit …
Assay: FACS on A375 cells
Experimental: (§1) A375 cells that endogenously expressed IL-13RA2, were harvested from flasks. 100 μl of 1×10⁶ cells/ml of cells were incubated with primary humanized antibodies in 4-fold serial dilutions starting from 200 nM to 0.003 nM for 30 minutes on ice. After being washed with 200 μl of FACS buffer twice, cells were incubated with secondary antibody for 30 minutes on ice. Cells were washed with 200 μl of FACS buffer twice and analyzed by FACS.

Binder | EC50
73A11E2 H2L2 hIgG1 (antibody, V domains shown, humanized, hIgG1) VH: QVQLVQSGAEVVKPGASVKVSCKASGFTFSSYGMSWVRQAPGQGLEWVGTISGGGSYTYYPESVKGRFTITRDTSTSTAYMELRSLRSDDTAVYYCARRDLRSAMDYWGQGTLVTVSS VL: DIVMTQSPLSLPVTLGQPASISCKASQNVDINVAWYQQRPGQSPRALIYSASYRYSGVPDRFSGSGSGTDFTLKISRVEAEDVGVFYCQQYNAYPLTFGQGTKLEIK | 0.67 nM
73A11E2 H1L3 hIgG1 (antibody, V domains shown, humanized, hIgG1) VH: QVQLVQSGAEVKKPGASVKVSCKASGFTFSSYGMSWVRQAPGQGLEWMGTISGGGSYTYYPESVKGRVTMTTDTSTSTAYMELRSLRSDDTAVYYCARRDLRSAMDYWGQGTLVTVSS VL: DIVMTQSPLSLPTTLGQPASISCKASQNVDINVAWYQQRPGQSPRALIYSASYRYSGVPDRFSGSGSGTDFTLTISRVEAEDVGVFYCQQYNAYPLTFGGGTKLEIK | ~251 nM and ~522 nM
73A11E2 H3L1 hIgG1 (antibody, V domains shown, humanized, hIgG1) VH: QVQLVQSGAEVVKPGASVKLSCKASGFTFSSYGMSWVRQAPGQGLEWVATISGGGSYTYYPESVKGRFTITRDNSTSTLYMEMRSLRSDDTAVYYCARRDLRSAMDYWGQGTLVTVSS VL: DVVMTQSPLSLPVTLGQPASISCKASQNVDINVAWFQQRPGQSPRRLIYSASYRYSGVPDRFSGSGSGTDFTLKISRVEAEDVGVYYCQQYNAYPLTFGQGTKLEIK | 1.07 nM and 1.37 nM
73A11E2 H2L4 hIgG1 (antibody, V domains shown, humanized, hIgG1) VH: QVQLVQSGAEVVKPGASVKVSCKASGFTFSSYGMSWVRQAPGQGLEWVGTISGGGSYTYYPESVKGRFTITRDTSTSTAYMELRSLRSDDTAVYYCARRDLRSAMDYWGQGTLVTVSS VL: DIVMTQSPLSLPTTLGQPVSVSCKASQNVDINVAWYQQRPGQSPRALIYSASYRYSGVPDRFSGSGSGTDFTLTISRVEAEDVAVFFCQQYNAYPLTFGGGTKLEIK | 1.61 nM and 0.66 nM
73A11E2 H3L3 hIgG1 (antibody, V domains shown, humanized, hIgG1) VH: QVQLVQSGAEVVKPGASVKLSCKASGFTFSSYGMSWVRQAPGQGLEWVATISGGGSYTYYPESVKGRFTITRDNSTSTLYMEMRSLRSDDTAVYYCARRDLRSAMDYWGQGTLVTVSS VL: DIVMTQSPLSLPTTLGQPASISCKASQNVDINVAWYQQRPGQSPRALIYSASYRYSGVPDRFSGSGSGTDFTLTISRVEAEDVGVFYCQQYNAYPLTFGGGTKLEIK | 1.49 nM and 1.17 nM
73A11E2 H3L2 hIgG1 (antibody, V domains shown, humanized, hIgG1) VH: QVQLVQSGAEVVKPGASVKLSCKASGFTFSSYGMSWVRQAPGQGLEWVATISGGGSYTYYPESVKGRFTITRDNSTSTLYMEMRSLRSDDTAVYYCARRDLRSAMDYWGQGTLVTVSS VL: DIVMTQSPLSLPVTLGQPASISCKASQNVDINVAWYQQRPGQSPRALIYSASYRYSGVPDRFSGSGSGTDFTLKISRVEAEDVGVFYCQQYNAYPLTFGQGTKLEIK | 2.22 nM and 1.53 nM
73A11E2 H2L1 hIgG1 (antibody, V domains shown, humanized, hIgG1) VH: QVQLVQSGAEVVKPGASVKVSCKASGFTFSSYGMSWVRQAPGQGLEWVGTISGGGSYTYYPESVKGRFTITRDTSTSTAYMELRSLRSDDTAVYYCARRDLRSAMDYWGQGTLVTVSS VL: DVVMTQSPLSLPVTLGQPASISCKASQNVDINVAWFQQRPGQSPRRLIYSASYRYSGVPDRFSGSGSGTDFTLKISRVEAEDVGVYYCQQYNAYPLTFGQGTKLEIK | 0.6 nM and 0.56 nM
73A11E2 H2L3 hIgG1 (antibody, V domains shown, humanized, hIgG1) VH: QVQLVQSGAEVVKPGASVKVSCKASGFTFSSYGMSWVRQAPGQGLEWVGTISGGGSYTYYPESVKGRFTITRDTSTSTAYMELRSLRSDDTAVYYCARRDLRSAMDYWGQGTLVTVSS VL: DIVMTQSPLSLPTTLGQPASISCKASQNVDINVAWYQQRPGQSPRALIYSASYRYSGVPDRFSGSGSGTDFTLTISRVEAEDVGVFYCQQYNAYPLTFGGGTKLEIK | 0.69 nM and 0.67 nM

More lines, now with the values ahead:

EC50 | Binder
1.12 nM and 1.51 nM | 73A11E2 H4L4 hIgG1 (antibody, V domains shown, humanized, hIgG1) VH: QVKLVESGAEVVKPGASVKLSCKASGFTFSSYGMSWVRQAPGQRLEWVATISGGGSYTYYPESVKGRFTITRDNSTSTLYLEMRSLRSDDTAVYYCARRDLRSAMDYWGQGTLVTVSS VL: DIVMTQSPLSLPTTLGQPVSVSCKASQNVDINVAWYQQRPGQSPRALIYSASYRYSGVPDRFSGSGSGTDFTLTISRVEAEDVAVFFCQQYNAYPLTFGGGTKLEIK
0.943 nM and 1.2 nM | 73A11E2 H4L1 hIgG1 (antibody, V domains shown, humanized, hIgG1) VH: QVKLVESGAEVVKPGASVKLSCKASGFTFSSYGMSWVRQAPGQRLEWVATISGGGSYTYYPESVKGRFTITRDNSTSTLYLEMRSLRSDDTAVYYCARRDLRSAMDYWGQGTLVTVSS VL: DVVMTQSPLSLPVTLGQPASISCKASQNVDINVAWFQQRPGQSPRRLIYSASYRYSGVPDRFSGSGSGTDFTLKISRVEAEDVGVYYCQQYNAYPLTFGQGTKLEIK
1.12 nM and 1.31 nM | 73A11E2 H4L2 hIgG1 (antibody, V domains shown, humanized, hIgG1) VH: QVKLVESGAEVVKPGASVKLSCKASGFTFSSYGMSWVRQAPGQRLEWVATISGGGSYTYYPESVKGRFTITRDNSTSTLYLEMRSLRSDDTAVYYCARRDLRSAMDYWGQGTLVTVSS VL: DIVMTQSPLSLPVTLGQPASISCKASQNVDINVAWYQQRPGQSPRALIYSASYRYSGVPDRFSGSGSGTDFTLKISRVEAEDVGVFYCQQYNAYPLTFGQGTKLEIK
1.16 nM and 1.29 nM | 73A11E2 H3L4 hIgG1 (antibody, V domains shown, humanized, hIgG1) VH: QVQLVQSGAEVVKPGASVKLSCKASGFTFSSYGMSWVRQAPGQGLEWVATISGGGSYTYYPESVKGRFTITRDNSTSTLYMEMRSLRSDDTAVYYCARRDLRSAMDYWGQGTLVTVSS VL: DIVMTQSPLSLPTTLGQPVSVSCKASQNVDINVAWYQQRPGQSPRALIYSASYRYSGVPDRFSGSGSGTDFTLTISRVEAEDVAVFFCQQYNAYPLTFGGGTKLEIK
0.909 nM and 1.45 nM | 73A11E2 H4L3 hIgG1 (antibody, V domains shown, humanized, hIgG1) VH: QVKLVESGAEVVKPGASVKLSCKASGFTFSSYGMSWVRQAPGQRLEWVATISGGGSYTYYPESVKGRFTITRDNSTSTLYLEMRSLRSDDTAVYYCARRDLRSAMDYWGQGTLVTVSS VL: DIVMTQSPLSLPTTLGQPASISCKASQNVDINVAWYQQRPGQSPRALIYSASYRYSGVPDRFSGSGSGTDFTLTISRVEAEDVGVFYCQQYNAYPLTFGGGTKLEIK

Biological target: T1, human interleukin 13 receptor subunit …
Assay: FACS on A375 cells
Remark: another data set of the same source
Experimental: as §1, with “expressed IL-13RA2” for “expressed IL-13RA2,”, “primary” for “primary humanized”, “from 100” for “from 200”, “to 0.006” for “to 0.003”

EC50 | Top (MFI) | Binder
0.9 nM | 334000 MFI | 62A8D8 (antibody, V domains shown, purified mouse antibody) VH: EVKLVESGGGLVKPGGSLKLSCAASGFTFSSYGMSWVRQTPEKRLEWVATISGGGSYTYYPDSVKGRFTISRDNAKNNLYLQMSSLRSEDTALYYCARRDLRSAMDYWGQGTSVTVSS VL: DIVMTQSQKFMSTSVGDRVSVTCKASQNVDINVAWYQQKPGQSPKALIYSASYRYSGVPDRFTGSGSGTDFTLTISNVQSEDLAEFFCQQYNNYPLTFGGGTKLEIK
0.52 nM | 235000 MFI | 42E3C4 (antibody, V domains shown, purified mouse antibody) VH: EVKLVESGGGLVRPGGSLKISCAASGFTFSTYGMSWVRQTPEKRLEWVATISGGGSYTYYPDSVKGRFTISRDNAKNNLYLQMSSLRSEDTALYYCARRDLRSAMDYWGQGTSVTVSS VL: DIVMTQSQKFMSTSVGDRVSVTCKASQNVDINVAWYQQKPGQSPKALIYSASFRYSGVPDRFTGSGSGTDFTLTISNVQSEDLAEYFCQQYNSYPLTFGGGTKLEIK
0.84 nM | 268000 MFI | 54A4F7 (antibody, V domains shown, purified mouse antibody) VH: EVKLVESGGGLVKPGGSLKLSCAASGFTFSSYGMSWVRQTPEKRLEWVATISGGGSYTYYPDSVKGRFTISRDNAKNNLYLQMSSLRSEDTALYYCARRDLRSAMDHWGQGTSVTVSS VL: DIVMTQSQKFMSTSVGDRVSVTCRASQNVDINVAWYQQKPGQSPKSLIYSASYRYSGVPDRFTGSGSGTDFTLTISNVQSEDLAEYFCQQYNSYPLTFGGGTKLEIR
